Article PMC11205783, “HigA2 (Rv2021c) Is a Transcriptional Regulator with Multiple Regulatory Targets in Mycobacterium tuberculosis”

T1: HigA2 (Mycobacterium tuberculosis H37Rv, UniProt O53467 1-101)
T1 sequence: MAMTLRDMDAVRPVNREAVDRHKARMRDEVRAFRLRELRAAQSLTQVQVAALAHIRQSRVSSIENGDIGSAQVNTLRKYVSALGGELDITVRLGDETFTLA

B1: seq6 m4 (dsDNA)
DNA 1: CGCTGCTCTTACCCGGAGGAATATCACAGGTCCGTGATATCGCGTATCGCGCTACTCTG
DNA 2: CAGAGTAGCGCGATACGCGATATCACGGACCTGTGATATTCCTCCGGGTAAGAGCAGCG
B2: seq6 m5 (dsDNA)
DNA 1: CTGCTCAAAGATCGACTAGTATATCACAGGTCCGTGATATGACGTATACCTTTGGTGCA
DNA 2: TGCACCAAAGGTATACGTCATATCACGGACCTGTGATATACTAGTCGATCTTTGAGCAG
B3: seq6 m6 (dsDNA)
DNA 1: CGCTGCTCTTACCCGGAGGAGCATCACCCTTGTGTGATCACGCGTATCGCGCTACTCTG
DNA 2: CAGAGTAGCGCGATACGCGTGATCACACAAGGGTGATGCTCCTCCGGGTAAGAGCAGCG

Each binder was assayed against T1, HigA2 (assay: EMSA; EMSA: 20 mM Tris-HCl, 150 mM NaCl, pH 8.0, 37 °C, 5 min, HigA2 1 uM (titrated in Fig 4); agarose or native PAGE. Pull-down: streptavidin beads, 4 °C, PBS washes). Conditions: protein: recombinant; tags: C-terminal 6xHis; chain copies: 2.

Question: Does B1 bind?
Answer: Result: binds

Question: Does B2 bind?
Answer: Result: binds

Question: Does B3 bind?
Answer: Result: binds
